Values joined by “and” are separate entries in the source; they are usually repeats but may differ in a detail not shown here. Equal entries are not always repeated.
How the values were obtained:
[1] = tested on: transgenic mice expressing human Swedish mutant APP; assay: Mouse model of AD (APP transgenic mice): amyloid deposition and Morris water maze; assay type: in vivo; conditions: treated for 3 months, vs vehicle and human IgG1
Method: Experiments were performed to evaluate whether TTP-4000 could affect amyloid formation and cognitive dysfunction in a mouse model of AD. The experiments utilized transgenic mice expressing the human Swedish mutant amyloid precursor protein (APP) under the control of the PDGF-B chain promoter. Over time, these mice generate high levels of the RAGE ligand, amyloid beta (Aβ).
The APP mice (male) used in this experiment were designed by microinjection of the human APP gene (with the Swedish and London mutations) into mouse eggs under the control of the platelet-derived growth factor B (PDGF-B) chain gene promoter. The mice were generated on a C57BL/6 background and were developed by Molecular Therapeutics Inc. Animals were fed ad libitum and maintained by brother sister mating. The mice generated from this construct develop amyloid deposits starting at 6 months of age. Animals were aged for 6 months and then maintained for 90 days and sacrificed for amyloid quantification.
APP transgenic mice were administered vehicle or TTP4000 every other day [qod (i.p.)] for 90 days starting at 6 months of age. At the end of the experiment, animals were sacrificed and examined for Aβ plaque burden in the brain (i.e., plaque number). A 6-month control APP group was used to determine the baseline of amyloid deposits. In addition, at the end of the study, the animals were subjected to behavioral (Morris water maze) analysis. The investigators were blinded to the study compounds. Samples were given to the mice at 0.25 ml/mouse/every other day.
For histological examination, the animals were anesthetized with an intraperitoneal injection (IP) of sodium pentobarbital (50 mg/kg). The animals were transcardially perfused with 4° C., phosphate-buffered saline (PBS) followed by 4% paraformaldehyde. The brains were removed and placed in 4% paraformaldehyde over night. The brains were processed to paraffin and embedded. Ten serial 30-μm thick sections through the brain were obtained. Sections were subjected to primary antibody overnight at 4° C. (Aβ peptide antibody) in order to detect the amyloid deposits in the brain of the transgenic animals (Guo et al., J. Neurosci., 22:5900-5909 (2002)). Sections were washed in Tris-buffered saline (TBS) and secondary antibody was added and incubated for 1 hour at room temperature. After washing, the sections were incubated as instructed in the Vector ABC Elite kit (Vector Laboratories) and stained with […] (DAB). The reactions were stopped in water and cover-slipped after treatment with xylene. The amyloid area in each section was determined with a computer-assisted image analysis system, consisting of a Power Macintosh computer equipped with a Quick Capture frame grabber card, Hitachi CCD camera mounted on an Olympus microscope and camera stand. NIH Image Analysis Software, v. 1.55 was used. The images were captured and the total area of amyloid was determined over the ten sections. A single operator blinded to treatment status performed all measurements. Summing the amyloid volumes of the sections and dividing by the total number of sections was done to calculate the amyloid volume.
For quantitative analysis, an enzyme-linked immunosorbent assay (ELISA) was used to measure the levels of human total Aβ, Aβtotal and Aβ1-42 in the brains of APP transgenic mice (Biosource International, Camarillo, Calif.). Aβtotal and Aβ1-42 were extracted from mouse brains by guanidine hydrochloride and quantified as described by the manufacturer. […]

[2] = molecular target: T1, amyloid-beta (Abeta) (Amyloid Beta (1-40)) (Homo sapiens, UniProt P05067); assay: In vitro ligand binding (ELISA) to immobilized amyloid-beta; conditions: ligand 5 micrograms per well; FIG. 7
T1 construct: Amyloid Beta (1-40) from Biosource; purchased Biosource
T1 sequence (P05067 672-711): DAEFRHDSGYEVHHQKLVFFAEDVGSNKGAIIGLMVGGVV
Method: (§1) For example, the RAGE fusion protein may be used in a binding assay to identify potential RAGE ligands. In one example embodiment of such a binding assay, a known RAGE ligand may coated onto a solid substrate (e.g., Maxisorb plates) at a concentration of about 5 micrograms per well, where each well contains a total volume of about 100 microliters (μL). The plates may be incubated at 4° C. overnight to allow the ligand to absorb. Alternatively, shorter incubation periods at higher temperature (e.g., room temperature) may be used. […] The RAGE fusion protein bound to the immobilized ligand may be detected in a variety of ways. […] The bound complex may be detected by adding the alkaline phosphatase substrate, para-nitrophenylphosphate (PNPP), and measuring conversion of PNPP to para-nitrophenol (PNP) as an increase in absorbance at 405 nm. […] In the absence of ligand (i.e., coating with only BSA) there was no increase in absorbance. […] Binding was detected by the addition of an immunodetection complex containing a monoclonal mouse anti-human IgG1 diluted 1:11,000 to a final assay concentration (FAC) of 21 ng/100 μL, a biotinylated goat anti-mouse IgG diluted 1:500, to a FAC of […], and an avidin-linked alkaline phosphatase. […]

[3] = molecular target: T2, S100b (S100) (Homo sapiens, UniProt P04271); assay: In vitro ligand binding (ELISA) to immobilized S100b; conditions: ligand 5 micrograms per well; FIG. 7
T2 sequence (P04271 1-92): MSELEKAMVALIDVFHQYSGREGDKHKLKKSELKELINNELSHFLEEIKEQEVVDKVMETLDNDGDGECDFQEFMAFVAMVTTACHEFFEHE
Method: as §1

[4] = molecular target: T3, amphoterin (Ampho) (Homo sapiens, UniProt P09429); assay: In vitro ligand binding (ELISA) to immobilized amphoterin; conditions: ligand 5 micrograms per well; FIG. 7
T3 sequence (P09429 1-215): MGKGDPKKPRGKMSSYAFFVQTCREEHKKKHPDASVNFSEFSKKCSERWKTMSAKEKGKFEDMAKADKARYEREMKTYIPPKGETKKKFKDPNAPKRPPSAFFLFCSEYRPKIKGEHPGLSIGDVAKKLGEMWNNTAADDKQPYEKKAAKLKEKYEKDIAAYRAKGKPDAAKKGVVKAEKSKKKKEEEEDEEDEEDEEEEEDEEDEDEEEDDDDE
Method: as §1

[5] = tested on: recurrent diabetes in NOD/LtJ mice with syngeneic islet transplants; assay: Syngeneic islet transplantation in diabetic NOD mice; assay type: in vivo, mouse; conditions: 300 ug LD + 100 ug qod ip
Source text: Spontaneous autoimmune non-obese diabetic mice (NOD/LtJ) (12-25 weeks old) served as recipients for islet cells, while young pre-diabetic NOD/LtJ mice (6-7 weeks old) served as donors in syngeneic islet transplantation. Islets for transplantation were isolated as described above in Section A (Allogeneic Islet Transplantation).
Diabetic NOD/LtJ mice received islet grafts within 2 days of the diagnosis of diabetes. 500-600 freshly isolated islets (approximately 550 islet equivalents) from donor mice were picked up with an infusion set and transplanted into the subcapular space of the right kidney.
Test compounds were administered as soon as the islets were transplanted and continued for approximately 8 weeks.
Islet graft function was monitored by serial blood glucose measurements daily for the first 2 weeks after islet transplantation, followed by every other day thereafter. Reversal of diabetes was defined as blood glucose less than 200 mg/dl on two consecutive measurements. Percentage graft loss was determined when blood glucose exceeded 250 mg/dl on two consecutive measurements.

| Molecule | Aβ plaques in the brain ([1]; FIG. 14A) | cognitive dysfunction (Morris water maze) ([1]; FIG. 14B) | binding to immobilized amyloid-beta (absorbance at 405 nm) [2] | binding to immobilized S100b (absorbance at 405 nm) [3] | binding to immobilized amphoterin (absorbance at 405 nm) [4] | day of graft loss, Mean [5] [days] | day of graft loss, each animal ([5]; blood glucose exceeded 250 mg/dl) |
| --- | --- | --- | --- | --- | --- | --- | --- |
| mouse sRAGE: mouse soluble RAGE used as comparator in the AD mouse model (protein, UniProt Q62151 23-340, looked up, extracellular domain, mouse soluble RAGE used as comparator in the AD mouse model) extracellular domain: GQNITARIGEPLVLSCKGAPKKPPQQLEWKLNTGRTEAWKVLSPQGGPWDSVARILPNGSLLLPATGIVDEGTFRCRATNRRGKEVKSNYRVRVYQIPGKPEIVDPASELTASVPNKVGTCVSEGSYPAGTLSWHLDGKLLIPDGKETLVKEETRRHPETGLFTLRSELTVIPTQGGTHPTFSCSFSLGLPRRRPLNTAPIQLRVREPGPPEGIQLLVEPEGGIVAPGGTVTLTCAISAQPPPQVHWIKDGAPLPLAPSPVLLLPEVGHEDEGTYSCVATHPSHGPQESPPVSIRVTETGDEGPAEGSVGESGLGTLA | fewer Aβ plaques | less cognitive dysfunction |  |  |  |  |  |
| TTP-3000: three domain RAGE fusion protein: human RAGE V domain and interdomain linker (to residue 136) fused to CH2 and CH3 domains of human IgG1 (protein) QNITARIGEPLVLKCKGAPKKPPQRLEWKLNTGRTEAWKVLSPQGGGPWDSVARVLPNGSLFLPAVGIQDEGIFRCQAMNRNGKETKSNYRVRVYQIPGKPEIVDSASELTAGPSVFLFPPKPKDTLMISRTPEVTCVVVDVSHEDPEVKFNWYVDGVEVHNAKTKPREEQYNSTYRVVSVLTVLHQDWLNGKEYKCKVSNKALPAPIEKTISKAKGQPREPQVYTLPPSRDELTKNQVSLTCLVKGFYPSDIAVEWESNGQPENNYKTTPPVLDSDGSFFLYSKLTVDKSRWQQGNVFSCSVMHEALHNHYTQKSLSLSPGK |  |  | specifically interact | specifically interact | specifically interact | 38.43 | 46 days and 42 days and 41 days and 34 days and 32 days and 30 days and 44 days |
